In patent US10562935B2, “Stapled peptides and uses thereof” (London Health Sciences Centre Research Inc., priority 2015, dated 2020):
Bridges are numbered along the chain shown (N, C = ends).

Assays:
[1] = system: RHAMM-overexpressing (LR21) cells; test: Cell migration assay (Boyden chamber, Chemicon ECM510); assay type: cell-based; conditions: 10 ng/mL peptide; 20 hours; compared to 30% serum control
Protocol: Compounds 132, 133, 150-152, 156-161, 265-269, 275, 277, and 278 were evaluated for their ability to inhibit cell migration. Cell migration assays were performed using Chemicon Assay Kits (ECM510 (Migration); Billerica, Mass., USA) according to the manufacturer's protocol. Briefly, sub-confluent cultures of RHAMM-overexpressing (LR21) cells were serum starved overnight. 7.5×10^4 cells were then plated in the upper chamber of a Boyden chamber. either in the presence or absence of 10 ng/mL of peptide. 30% fetal bovine serum in DMEM was used as the chemo-attractant in the lower chamber. The number of cells that had crossed the membrane after 20 hours was assessed using the CYQUANT GR Dye and lysis buffer solution provided in the kit. Fluorescence was measured with a fluorescent plate reader using a 480/520 nm filter set.
Values are the mean and SDM of n=3 replicates. *p<0.05, **p<0.01. All statistics compare to 30% serum control. In FIGS. 41-43, where bars are labeled with two compound numbers (“133/150” and “135/152”) this means that the data were pooled for the indicated compounds, i.e., for the non-acetylated and acetylated versions of the indicated peptides.

[2] = Circular dichroism (CD) spectroscopy of HABD2 peptides in Milli-Q water (Example 1); assay type: physicochemical; conditions: for [θ]222/[θ]208 ratio of ellipticities / fH fraction helicity / Molar ellipticity [θ]192 / Molar ellipticity [θ]208 / Molar ellipticity [θ]222: 0.5 mM in Milli-Q water; for fH fraction helicity: equations 1-3; for α-helical character by CD (in words): Milli-Q water; for Molar ellipticity [θ]192: λ = 192 nm; for Molar ellipticity [θ]208: λ = 208 nm; for Molar ellipticity [θ]222: λ = 222 nm
From the text: In addition, a large mean residue ellipticity indicates greater α-helical character. […] This was predicted to be the case, as there is a lack of contributing residues that might form a hydrophobic core, thereby helping to stabilize the secondary structure of the linear peptide. For this reason, bridges were introduced into the peptides. […] The differences in α-helicity induced by the bridges placed at different points within each peptide may be due to the differences in their primary sequences. Specifically, two amino acids (at the i and i+4 position) have to be replaced in order to form the lactam bridge. In compound 133, leucine was replaced at both the i and i+4 position; while in compound 136, glutamine was replaced at the i position and aspartic acid was replaced at i+4. Leucine and glutamine are proposed to be helix-stabilizing residues.
A larger portion of the RHAMM protein was used as the reference for α-helical character of the truncated peptides. 7 kDa RHAMM (SEQ ID NO: 1) is a mini protein that is composed of 62 amino acids, which was derived from the C-terminus of the full-length RHAMM sequence. It contains both HABDs, and is predicted to have almost complete α-helix shape, similar to that of native full-length RHAMM.
A peptide's α-helicity can be quantified using equations 1-3: fH=[([θ]obs222−[θ]c)/([θ]max222−[θ]c)] (Equation 1) [θ]c=2220+53T (Equation 2) [θ]max222=(−44000+250T)(1−k/N) (Equation 3) where fH is the ratio of the average number of helical hydrogen bonds divided by the total number of hydrogen bonds that can be found in a peptide, T is the temperature in degrees Celsius, N is the number of residues in the peptide and k is a constant of ellipticity when 100% of the structure is α-helical (3 for carboxyamidated peptides).
Milli-Q water was chosen as the solvent in which all peptides would be dissolved for CD spectroscopy, as it is a UV invisible solvent, which is a requirement of the analytical technique, and it represents RHAMM's natural environment in the body. Luo and Baldwin [18] stated that when peptides are taken out of their native protein sequence, they usually show little to no helical formation in water alone. For this reason, TFE/H2O solutions are commonly used in studies to observe the α-helix characteristics, and may improve the helical nature of the peptides observed here. However, a helix-stabilizing solvent, such as TFE, would not be as contextually relevant, as there are no solvent stabilizing effects in the body. Thus use of TFE would tend to produce skewed results and not be representative of the peptide's natural behavior.

[3] = system: RHAMM-overexpressing (LR21) cells; test: Cell invasion assay (Boyden chamber with MATRIGEL, Chemicon ECM555); assay type: cell-based; conditions: 10 ng/mL peptide; 20 hours; compared to 30% serum control
Protocol: Compounds 132, 133, 135, 150-153, 156, 265-269, and 275-278 were evaluated for their ability to inhibit cellular invasion. Invasion assays were performed using Chemicon Assay Kits ECM555 (Invasion); Billerica, Mass., USA) according to the manufacturer's protocol. Invasion assays are performed in an identical manner as the migration assays described above in Example 5, except that cells are required to invade through a layer of extracellular matrix (MATRIGEL) coating the filter that separates the upper and lower Boyden chambers. Briefly, sub-confluent cultures of RHAMM-overexpressing (LR21) cells were serum starved overnight before plating 7.5×10^4 cells in the upper chamber of a Boyden chamber either in the presence or absence of 10 ng/mL of peptide. 30% fetal bovine serum in DMEM was used as the chemo-attractant in the lower chamber. The number of cells that had crossed the membrane after 20 hours was assessed using the CYQUANT® GR Dye and lysis buffer solution provided in the kit. Fluorescence was measured with a fluorescent plate reader using 480/520 nm filter set.
Values the mean and SDM of n=3 replicates. *p<0.05, **p<0.01, ***p<0.001 All statistics compared to 30% serum control. In FIG. 49, where bars are labeled with two compound numbers (“152/135”) this means that the data were pooled for the indicated compound, i.e., for the non-acetylated and acetylated versions of the indicated peptide.

NF-κB = test: Inflammation assay: NF-κB inducible SEAP reporter in RAW-Blue macrophages stimulated with PAM3CSK4; assay type: cell-based, murine; conditions: 10 ng/mL peptide with 200 ng/mL PAM3CSK4; 18 hours; compared to +PAM3
Protocol: Compounds 132, 133, 135, 150, 152, 157-161, 265-269, 275, 277, and 278 were evaluated for their ability to inhibit inflammation. To determine the effect of the peptides on inflammation, commercially available murine RAW 264.7 macrophages carrying a secreted embryonic alkaline phosphatase (SEAP) reporter that is inducible by NF-κB (RAW-Blue; InvivoGen, San Diego, Calif., USA) were used. Cells were grown to 80% confluence in DMEM containing 4.5 g/L glucose, 10% heat-inactivated fetal bovine serum, 2 mM L-glutamine, 50 μg/mL penicillin/streptomycin, 100 μg/mL Normocin (InvivoGen) at 37° C. in 5% CO2. For peptide screening experiments, cells were scraped in growth medium, counted, and plated to flat-bottom 96-well plates at a density of 5×10^4 cells/well either in the presence or absence (control) of 200 ng/mL TLR1/TLR2 agonist PAM3CSK4 (InvivoGen). Peptides were added in 6 replicate wells at a dose of 10 ng/mL in the presence of PAM3CSK4. After 18 hours of stimulation, SEAP concentrations (indicating NF-κB activity) were measured in the supernatants collected from the RAW-Blue cells using QUANTI-BLUE reagent (InvivoGen). After 20 minutes of incubation at 37° C., SEAP levels were determined using spectrophotometry at a wavelength of 630 nm.
Values are the mean and SDM of n=3 replicates. *p<0.05 and ***p<0.001 compared to +PAM3. In FIGS. 44 and 45, where bars are labeled with two compound numbers (“133/150” and “135/152”) this means that the data were pooled for the indicated compounds, i.e., for the non-acetylated and acetylated versions of the indicated peptides.

Substance | inhibition of cell migration (in words) [1] | [θ]222/[θ]208 ratio of ellipticities [2] | fH fraction helicity [2] | α-helical character by CD (in words) [2] | Molar ellipticity [θ]192 [2] | Molar ellipticity [θ]208 [2] | Molar ellipticity [θ]222 [2] | inhibition of cellular invasion (in words) [3] | inhibition of inflammation (SEAP / NF-κB activity, in words) (NF-κB)
H-(cyclo-4,8)-VSK[ERSQK]VKRKQN-NH2 (H-VSKERSQKVKRKQN-NH2; lactam 4-8; SMILES CC(C)[C@H](N)C(=O)N[C@@H](CO)C(=O)N[C@@H](CCCCN)C(=O)N[C@H]1CCC(=O)NCCCC[C@@H](C(=O)N[C@H](C(=O)N[C@@H](CCCCN)C(=O)N[C@@H](CCCNC(=N)N)C(=O)N[C@@H](CCCCN)C(=O)N[C@@H](CCC(N)=O)C(=O)N[C@@H](CC(N)=O)C(N)=O)C(C)C)NC(=O)[C@H](CCC(N)=O)NC(=O)[C@H](CO)NC(=O)[C@H](CCCNC(=N)N)NC1=O) [Compound 133] | significantly inhibit cell migration | 0.45 | 0.17 | did not seem to stabilize | 1733.35 deg cm^2 dmol^−1 residue^−1 | −5010.81 deg cm^2 dmol^−1 residue^−1 | −2260.92 deg cm^2 dmol^−1 residue^−1 | significantly inhibited cellular invasion | –
H-(cyclo-6,10)-VSKLR[EQLVK]RKQN-NH2 (H-VSKLREQLVKRKQN-NH2; lactam 6-10; SMILES CC(C)C[C@H](NC(=O)[C@H](CCCCN)NC(=O)[C@H](CO)NC(=O)[C@@H](N)C(C)C)C(=O)N[C@@H](CCCNC(=N)N)C(=O)N[C@H]1CCC(=O)NCCCC[C@@H](C(=O)N[C@@H](CCCNC(=N)N)C(=O)N[C@@H](CCCCN)C(=O)N[C@@H](CCC(N)=O)C(=O)N[C@@H](CC(N)=O)C(N)=O)NC(=O)[C@H](C(C)C)NC(=O)[C@H](CC(C)C)NC(=O)[C@H](CCC(N)=O)NC1=O) [Compound 135] | significantly inhibit cell migration | 0.55 | 0.22 | increase in α-helix structure | 1245.85 deg cm^2 dmol^−1 residue^−1 | −7906.16 deg cm^2 dmol^−1 residue^−1 | −4400.73 deg cm^2 dmol^−1 residue^−1 | significantly inhibited cellular invasion | significantly inhibited inflammation
